As a reminder, the Kd is the constant that tells how readily two partners part at equilibrium. Low readings indicate a tighter complex, high ones a looser complex.

Consider 1 molecule from patent publication US20260092124A1 (published 2026).

The target of the assay is human CD40 (human, UniProt P25942 21-277). Briefly: cell binding (GpL luciferase, HT1080-CD40); single representative experiment.
Sequence of human CD40 (P25942 21-277): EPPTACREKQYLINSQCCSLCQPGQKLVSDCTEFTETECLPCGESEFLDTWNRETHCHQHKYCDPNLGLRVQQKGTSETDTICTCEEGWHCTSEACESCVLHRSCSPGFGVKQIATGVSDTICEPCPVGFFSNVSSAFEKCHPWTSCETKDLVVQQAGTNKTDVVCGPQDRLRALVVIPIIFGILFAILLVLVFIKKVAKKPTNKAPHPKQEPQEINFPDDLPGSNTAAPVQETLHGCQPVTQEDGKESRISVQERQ

B1: GpL-CD40L, a fusion protein of soluble CD40L and Gaussia princeps luciferase (GpL) (ligand)
chain: GDQNPQIAAHVISEASSKTTSVLQWAEKGYYTMSNNLVTLENGKQLTVKRQGLYYIYAQVTFCSNREASSQAPFIASLCLKSPGRFERILLRAANTHSSAKPCGQQSIHLGGVFELQPGASVFVNVTDPSQVSHGTGFTSFGLLKL
For B1, the Kd amounted to 0.14 µg/mL.
